Results: patent US20200199192A1 (SHIRE NPS PHARMACEUTICALS, published 2020)

Key:
[1] = molecular target: the molecule itself; assay: NanoDSF at room temperature, self-association
Excerpt: Only the tryptophan fluorescence from the protein contributes to the signal. If tryptophan is buried or stable, the peak is at 330 nm and if the tryptophan is exposed or flexible, the peak is at 350 nm.

[2] = molecular target: the molecule itself; assay: microscale thermophoresis (MST), self-association; MST
Method: Microscale thermophoresis (MST) and nano differential scanning fluorimetry (NanoDSF) were performed to characterize the dimer-monomer transition. MST was used to determine the monomer/dimer equilibrium dissociation constant Kd. MST is based on thermodriven diffusion of molecules while NanoDSF is based on Trp fluorescence and is commonly used for thermostability Tm.

HGDGSFSDEMNTILDNLAARDFINWLIQTKITD (also called Gattex) [teduglutide]
Kd [1]: 77 µM | Kd [2]: 24 µM
